Tested on: Escherichia coli TOP10
Assay: shrunken log2 fold change of peptide-encoding DNA abundance (4.5 h post-induction vs induction); higher = less antimicrobial activity (less host growth inhibition)
Conditions: time post-induction: 4.5 h; library: site-saturation at positions 5, 18, 19, 20
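Note: peptides expressed intracellularly from a pBAD plasmid library in pooled LB shake-flask culture, induced with 0.3% L-arabinose, DNA abundance read by NGS, three biological replicates, DESeq2 with apeglm shrinkage.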

Sequence	shrunken log2 fold change
RRIRYRPPRLPRPRPRPVYYPRP	-0.68
RRIRGRPPRLPRPRPRPVARPRP	0.58
RRIRSRPPRLPRPRPRPVIKPRP	-0.476
RRIRGRPPRLPRPRPRPDAMPRP	2.4
RRIRTRPPRLPRPRPRPCIFPRP	-0.233
RRIRERPPRLPRPRPRPTHWPRP	1.02
RRIRHRPPRLPRPRPRPQMPPRP	-0.232
RRIRLRPPRLPRPRPRPAKGPRP	-0.00764
RRIRWRPPRLPRPRPRPYTIPRP	-0.606
RRIRPRPPRLPRPRPRPRFAPRP	0.323
RRIRWRPPRLPRPRPRPHLCPRP	-0.147
RRIRYRPPRLPRPRPRPAKCPRP	-0.153
RRIRARPPRLPRPRPRPIGHPRP	0.0734
RRIRARPPRLPRPRPRPADCPRP	0.203
RRIRFRPPRLPRPRPRPWTHPRP	-0.0346
RRIRYRPPRLPRPRPRPGQLPRP	-0.284
RRIRVRPPRLPRPRPRPIQKPRP	-0.017
RRIRPRPPRLPRPRPRPAYKPRP	-0.302
RRIRERPPRLPRPRPRPQGMPRP	-0.284
RRIRWRPPRLPRPRPRPLQKPRP	1.73
RRIRVRPPRLPRPRPRPMFCPRP	-0.0375
RRIRWRPPRLPRPRPRPNCLPRP	0.257
RRIRWRPPRLPRPRPRPNMHPRP	-0.00977
RRIRCRPPRLPRPRPRPRNAPRP	0.291
RRIRWRPPRLPRPRPRPIGLPRP	0.0952

Sequence	shrunken log2 fold change
RRIRWRPPRLPRPRPRPYRNPRP	-0.552
RRIRTRPPRLPRPRPRPQPDPRP	-0.136
RRIRARPPRLPRPRPRPFFWPRP	0.321
RRIRLRPPRLPRPRPRPNADPRP	0.126
RRIRNRPPRLPRPRPRPMKLPRP	-0.282
RRIRGRPPRLPRPRPRPMWHPRP	0.441
RRIRMRPPRLPRPRPRPYQSPRP	-0.118
RRIRGRPPRLPRPRPRPLLLPRP	0.607
RRIRLRPPRLPRPRPRPDTIPRP	-0.21
RRIRVRPPRLPRPRPRPKFWPRP	0.48
RRIRPRPPRLPRPRPRPTHRPRP	0.223
RRIRTRPPRLPRPRPRPFPHPRP	-0.247
RRIRTRPPRLPRPRPRPYNIPRP	-0.131
RRIRTRPPRLPRPRPRPMSLPRP	-0.147
RRIRHRPPRLPRPRPRPHSSPRP	-0.0394
RRIRWRPPRLPRPRPRPNGEPRP	-0.0407
RRIRDRPPRLPRPRPRPTCDPRP	0.224
RRIRARPPRLPRPRPRPLGLPRP	0.353
RRIRRRPPRLPRPRPRPNILPRP	-0.0406
RRIRHRPPRLPRPRPRPHVKPRP	-0.00471
RRIRRRPPRLPRPRPRPQFAPRP	0.0495
RRIRRRPPRLPRPRPRPMAEPRP	-0.0431
RRIRDRPPRLPRPRPRPHCCPRP	-0.00968
RRIRTRPPRLPRPRPRPCTCPRP	-0.00101
RRIRTRPPRLPRPRPRPDLNPRP	0.0685

Sequence	shrunken log2 fold change
RRIRMRPPRLPRPRPRPVCAPRP	0.698
RRIRHRPPRLPRPRPRPLECPRP	-0.257
RRIRCRPPRLPRPRPRPKIQPRP	-0.156
RRIRRRPPRLPRPRPRPYGCPRP	-0.00402
RRIRKRPPRLPRPRPRPGHGPRP	0.16
RRIRQRPPRLPRPRPRPLWRPRP	3.25
RRIRWRPPRLPRPRPRPFPRPRP	0.111
RRIRMRPPRLPRPRPRPSSYPRP	0.236
RRIRYRPPRLPRPRPRPYQDPRP	-1.1
RRIRERPPRLPRPRPRPWAAPRP	-0.101
RRIRQRPPRLPRPRPRPLACPRP	-0.231
RRIRWRPPRLPRPRPRPNRIPRP	-0.115
RRIRQRPPRLPRPRPRPVGEPRP	0.443
RRIRHRPPRLPRPRPRPEFGPRP	0.308
RRIRGRPPRLPRPRPRPIFQPRP	0.407
RRIRTRPPRLPRPRPRPDFIPRP	-0.547
RRIRPRPPRLPRPRPRPSHTPRP	-0.0343
RRIRQRPPRLPRPRPRPYDKPRP	-0.119
RRIRWRPPRLPRPRPRPWGRPRP	0.0619
RRIRSRPPRLPRPRPRPVPWPRP	0.212
RRIRLRPPRLPRPRPRPEFNPRP	-0.0571
RRIRHRPPRLPRPRPRPMETPRP	-0.0865
RRIRVRPPRLPRPRPRPVIWPRP	0.286
RRIRDRPPRLPRPRPRPRVVPRP	0.11
RRIRCRPPRLPRPRPRPPSVPRP	0.292

Sequence	shrunken log2 fold change
RRIRSRPPRLPRPRPRPHSWPRP	0.122
RRIRSRPPRLPRPRPRPYNYPRP	-0.494
RRIRSRPPRLPRPRPRPHDNPRP	-0.308
RRIRTRPPRLPRPRPRPVHQPRP	-0.022
RRIRFRPPRLPRPRPRPTQTPRP	-0.199
RRIRFRPPRLPRPRPRPWCCPRP	-0.654
RRIRFRPPRLPRPRPRPSDCPRP	-0.476
RRIRVRPPRLPRPRPRPTFKPRP	-0.152
RRIRMRPPRLPRPRPRPICFPRP	0.149
RRIRDRPPRLPRPRPRPVKRPRP	0.0129
RRIRPRPPRLPRPRPRPHIFPRP	-0.0487
RRIRGRPPRLPRPRPRPNNQPRP	-0.011
RRIRYRPPRLPRPRPRPYAGPRP	-0.00131
RRIRDRPPRLPRPRPRPMPSPRP	0.026
RRIRDRPPRLPRPRPRPKQNPRP	0.277
RRIRVRPPRLPRPRPRPEGLPRP	0.0931
RRIRKRPPRLPRPRPRPMDIPRP	0.0655
RRIRGRPPRLPRPRPRPWYTPRP	-0.225
RRIRIRPPRLPRPRPRPHCCPRP	-0.642
RRIRWRPPRLPRPRPRPAKAPRP	0.747
RRIRFRPPRLPRPRPRPQHSPRP	-0.347
RRIRVRPPRLPRPRPRPHPVPRP	-0.201
RRIRARPPRLPRPRPRPTSKPRP	0.236
RRIRIRPPRLPRPRPRPFCVPRP	-0.713
RRIRQRPPRLPRPRPRPGSDPRP	0.337

Sequence	shrunken log2 fold change
RRIRARPPRLPRPRPRPMHWPRP	0.548
RRIRKRPPRLPRPRPRPVGTPRP	2.46
RRIRQRPPRLPRPRPRPMYHPRP	-0.477
RRIRRRPPRLPRPRPRPQNQPRP	0.0537
RRIRARPPRLPRPRPRPMGRPRP	0.275
RRIRSRPPRLPRPRPRPSSSPRP	-0.353
RRIRLRPPRLPRPRPRPHLVPRP	0.0694
RRIRGRPPRLPRPRPRPPWRPRP	1.07
RRIRIRPPRLPRPRPRPVWQPRP	0.536
RRIRPRPPRLPRPRPRPDEHPRP	-0.205
RRIRFRPPRLPRPRPRPRDDPRP	0.133
RRIRNRPPRLPRPRPRPNAGPRP	-0.0954
RRIRERPPRLPRPRPRPNGNPRP	-0.104
RRIRGRPPRLPRPRPRPCHYPRP	0.0219
RRIRQRPPRLPRPRPRPPCFPRP	0.222
RRIRWRPPRLPRPRPRPDSEPRP	1.48
RRIRRRPPRLPRPRPRPWNDPRP	-0.345
RRIRMRPPRLPRPRPRPFGFPRP	-0.0868
RRIRFRPPRLPRPRPRPFIEPRP	-0.894
RRIRHRPPRLPRPRPRPVLEPRP	0.338
RRIRLRPPRLPRPRPRPKCEPRP	0.0288
RRIRDRPPRLPRPRPRPFNIPRP	0.0125
RRIRLRPPRLPRPRPRPKFCPRP	-0.0573
RRIRFRPPRLPRPRPRPITAPRP	-0.286
RRIRQRPPRLPRPRPRPTNWPRP	0.146

Sequence	shrunken log2 fold change
RRIRVRPPRLPRPRPRPGTKPRP	0.193
RRIRHRPPRLPRPRPRPGWTPRP	-0.00563
RRIRRRPPRLPRPRPRPLFTPRP	1.61
RRIRNRPPRLPRPRPRPSMQPRP	-0.152
RRIRCRPPRLPRPRPRPNPDPRP	-0.306
RRIRFRPPRLPRPRPRPDWIPRP	-0.114
RRIRSRPPRLPRPRPRPREGPRP	2.98
RRIRRRPPRLPRPRPRPTKWPRP	0.0371
RRIRMRPPRLPRPRPRPHFDPRP	-0.0378
RRIRIRPPRLPRPRPRPRGWPRP	0.385
RRIRTRPPRLPRPRPRPSSGPRP	0.11
RRIRMRPPRLPRPRPRPFNNPRP	-0.296
RRIRCRPPRLPRPRPRPAKVPRP	-0.243
RRIRFRPPRLPRPRPRPPFQPRP	0.258
RRIRWRPPRLPRPRPRPKSWPRP	0.389
RRIRRRPPRLPRPRPRPYILPRP	0.366
RRIRKRPPRLPRPRPRPLPVPRP	0.431
RRIRIRPPRLPRPRPRPNYIPRP	-1.29
RRIRQRPPRLPRPRPRPKVHPRP	-0.0859
RRIRYRPPRLPRPRPRPSKGPRP	-0.203
RRIRYRPPRLPRPRPRPLMPPRP	-0.931
RRIRVRPPRLPRPRPRPSFVPRP	-0.422
RRIRIRPPRLPRPRPRPPISPRP	-0.391
RRIRGRPPRLPRPRPRPNLIPRP	-0.0614
RRIRNRPPRLPRPRPRPGQLPRP	-0.126
